Measurements from US20100069462A1 (JICHI MEDICAL UNIVERSITY, published 2010).

Molecular target: T1, PHB2-FLAG (human PHB2 protein with a FLAG tag fused to the carboxyl terminus) (human, UniProt O35129 1-299 (mouse entry))
T1 construct: Expressed in HeLa cells; immunoprecipitated with an anti-FLAG antibody from purified mitochondrial fractions; also called prohibitin 2; not shown: FLAG tag at the C-terminus
Assay: immunoprecipitation and mass spectrometry on purified HeLa mitochondrial fractions (summary of Example 3)
Protocol: First, immunoprecipitation (IP) analysis and mass spectrometry (MASS analysis) were conducted using purified mitochondrial fractions derived from HeLa cells expressing PHB2-FLAG, which had been prepared in Example 1.
In IP analysis, an immunoprecipitation method was performed using an anti-FLAG antibody, the precipitates were subjected to 12% SDS-PAGE, protein staining was performed, and then proteins that had been co-precipitated with the PHB2-FLAG protein were detected.

T1 sequence (O35129 whole entry, the tested form may be a part): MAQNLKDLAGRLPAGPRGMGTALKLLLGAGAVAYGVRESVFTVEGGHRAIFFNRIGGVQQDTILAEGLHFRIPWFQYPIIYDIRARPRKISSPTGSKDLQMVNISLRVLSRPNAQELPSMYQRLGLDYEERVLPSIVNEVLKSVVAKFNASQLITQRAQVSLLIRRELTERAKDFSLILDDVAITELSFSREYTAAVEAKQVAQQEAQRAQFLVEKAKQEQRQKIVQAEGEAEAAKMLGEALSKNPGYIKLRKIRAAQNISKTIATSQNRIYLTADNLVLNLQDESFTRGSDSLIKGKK

binding result: binds
B1: PHB1 protein (other, human, UniProt P35232 2-272, looked up)
chain: AAKVFESIGKFGLALAVAGGVVNSALYNVDAGHRAVIFDRFRGVQDIVVGEGTHFLIPWVQKPIIFDCRSRPRNVPVITGSKDLQNVNITLRILFRPVASQLPRIFTSIGEDYDERVLPSITTEILKSVVARFDAGELITQRELVSRQVSDDLTERAATFGLILDDVSLTHLTFGKEFTEAVEAKQVAQQEAERARFVVEKAEQQKKAAIISAEGDSKAAELIANSLATAGDGLIELRKLEAAEDIAYQLSRSRNITYLPAGQSVLLQLPQ
notes: Endogenous protein co-precipitated from HeLa mitochondrial fractions; also called prohibitin
